# Positions count from the first letter of the chain named.
# B1: CFP0017 17L 94T (antibody, V domains shown)
# VH: QVQLVQSGAEVKKPGSSVKVSCKASGGTFSSYAISWVRQAPGQGLEWMGGIIPIFGTANYAQKFQGRVTITADESTSTAYMELSSLRSEDTAVYYCARGGWWGGALDYWGQGTLVTVSS
# VL: DIQMTQSPSSLSASVGDRVTITCRASQSIEDDLAWYQQKPGKAPKLLIYHASSLQSGVPSRFSGSGSGTDFTLTISSLQPEDFATYYCQQSDSTPLTFGQGTKVEIK
# B2: CFP0017 17L 93D (antibody, V domains shown)
# VH: B1 VH
# VL: B1 VL with S93D, T94Y
# B3: CFP0017 17L 31H (antibody, V domains shown)
# VH: B1 VH
# VL: B1 VL with D31H, T94Y
# B4: CFP0017 17L 34N (antibody, V domains shown)
# VH: B1 VH
# VL: B1 VL with A34N, T94Y
# B5: CFP0017 17L 93R (antibody, V domains shown)
# VH: B1 VH
# VL: B1 VL with S93R, T94Y
# B6: CFP0017 17L 94S (antibody, V domains shown)
# VH: B1 VH
# VL: B1 VL with T94S
# B7: CFP0017 17L 93G (antibody, V domains shown)
# VH: B1 VH
# VL: B1 VL with S93G, T94Y
# B8: CFP0017 17L 53H (antibody, V domains shown)
# VH: B1 VH
# VL: B1 VL with S53H, T94Y
# B9: CFP0017 17L 31A (antibody, V domains shown)
# VH: B1 VH
# VL: B1 VL with D31A, T94Y
# B10: CFP0019 (antibody, V domains shown)
# VH: QVQLQESGPGLVKPSETLSLTCAVSGYSISSGYYWGWIRQPPGKGLEWIGSIYHSGSTYYNPSLKSRVTISVDTSKNQFSLKLSSVTAADTAVYYCARYYVWLGGPTYMDYWGQGTLVTVSS
# VL: B1 VL with S53T, S93G, T94Y
# notes: IgG format
# B11: CFP0017 17L 53T (antibody, V domains shown)
# VH: B1 VH
# VL: B1 VL with S53T, T94Y
# B12: CFP0017 17L 93N (antibody, V domains shown)
# VH: B1 VH
# VL: B1 VL with S93N, T94Y
# B13: CFP0017 17L 96Y (antibody, V domains shown)
# VH: B1 VH
# VL: B1 VL with T94Y, L96Y
# B14: CFP0017 17L 53N (antibody, V domains shown)
# VH: B1 VH
# VL: B1 VL with S53N, T94Y
# B15: CFP0021 21L 91R (antibody, V domains shown)
# VH: QVQLVESGGGLVQPGGSLRLSCAASGFTFSDHYMDWVRQAPGKGLEWVGRTRNKANSYTTEYAASVKGRFTISRDDSKNSLYLQMNSLKTEDTAVYYCARTGMMYWGIFDVWGQGTLVTVSS
# VL: B1 VL with S53T, S91R, T94Y
# B16: CFP0021 21L 93N (antibody, V domains shown)
# VH: B15 VH
# VL: B1 VL with S53T, S91H, S93N, T94Y
# B17: CFP0021 21L 93D (antibody, V domains shown)
# VH: B15 VH
# VL: B1 VL with S53T, S91H, S93D, T94Y
# B18: CFP0021 21L 94T (antibody, V domains shown)
# VH: B15 VH
# VL: B1 VL with S53T, S91H
# B19: CFP0021 21L 92N (antibody, V domains shown)
# VH: B15 VH
# VL: B1 VL with S53T, S91H, D92N, T94Y
# B20: CFP0021 21L 94W (antibody, V domains shown)
# VH: B15 VH
# VL: B1 VL with S53T, S91H, T94W
# B21: CFP0021 21L 94F (antibody, V domains shown)
# VH: B15 VH
# VL: B1 VL with S53T, S91H, T94F
# B22: CFP0021 21L 96W (antibody, V domains shown)
# VH: B15 VH
# VL: B1 VL with S53T, S91H, T94Y, L96W
# B23: CFP0021 21L 93R (antibody, V domains shown)
# VH: B15 VH
# VL: B1 VL with S53T, S91H, S93R, T94Y
# B24: CFP0021 21L 96H (antibody, V domains shown)
# VH: B15 VH
# VL: B1 VL with S53T, S91H, T94Y, L96H
# B25: CFP0021 21L 96F (antibody, V domains shown)
# VH: B15 VH
# VL: B1 VL with S53T, S91H, T94Y, L96F
# B26: CFP0021 21L 96I (antibody, V domains shown)
# VH: B15 VH
# VL: B1 VL with S53T, S91H, T94Y, L96I
# B27: CFP0021 21L 93G (antibody, V domains shown)
# VH: B15 VH
# VL: B1 VL with S53T, S91H, S93G, T94Y
# B28: CFP0021 21L 91Y (antibody, V domains shown)
# VH: B15 VH
# VL: B1 VL with S53T, S91Y, T94Y
# B29: CFP0021 21L 96P (antibody, V domains shown)
# VH: B15 VH
# VL: B1 VL with S53T, S91H, T94Y, L96P
# B30: CFP0021 21L 96Y (antibody, V domains shown)
# VH: B15 VH
# VL: B1 VL with S53T, S91H, T94Y, L96Y
# B31: CFP0021 21L 94H (antibody, V domains shown)
# VH: B15 VH
# VL: B1 VL with S53T, S91H, T94H
# B32: CFP0021 21L 94S (antibody, V domains shown)
# VH: B15 VH
# VL: B1 VL with S53T, S91H, T94S
# B33: CFP0021 21L 91S (antibody, V domains shown)
# VH: B15 VH
# VL: B1 VL with S53T, T94Y
# B34: CFP0021 21L 92S (antibody, V domains shown)
# VH: B15 VH
# VL: B1 VL with S53T, S91H, D92S, T94Y
# B35: antibody comprising heavy chain of clone 18 and light chain of 20L065 (antibody, V domains shown)
# VH: B1 VH with G99Q, G100L, W101Y, W102G, G103Y, G104Y, A105E, Y108I
# VL: B1 VL with E30H, H50E, S53N, S91Y, D92S, T94Y, L96H
# notes: also called clone 18 with common light chain
# Target: T1, human C5 (human, UniProt P01031 19-673; P01031 678-1676, Beta and alpha chains are disulfide-linked and the protein is glycosylated.)
# T1 construct: Either in-house recombinant C5 or plasma derived C5 (CALBIOCHEM) was used; also called recombinant human C5; plasma derived human C5
# Assay: Biacore, captured antibody, pH 7.4, 37 C;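 further: biacore binding response of anti-C5 antibody light chain variants captured on chip with human C5 injected, ACES running buffer containing 1.2 mM CaCl₂, parent light chain antibody set to 100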
row,Binder,% binding (parent = 100) [%]
1,B1,4.3
2,B2,22.9
3,B3,3.4
4,B4,-9.4
5,B5,84.9
6,B6,-8.4
7,B7,51
8,B8,69.6
9,B9,0.6
10,B10,100
11,B11,109
12,B12,63
13,B13,-11.1
14,B14,52.9
15,B15,1.5
16,B16,28.5
17,B17,22.2

row,Binder,% binding (parent = 100) [%]
1,B18,1.3
2,B19,4.7
3,B20,1.3
4,B21,0.9
5,B22,0.8
6,B23,5.2
7,B24,-0.7
8,B25,39.9
9,B26,19.7
10,B27,37.9
11,B28,79.5
12,B29,4.3
13,B30,1.4
14,B31,2.6
15,B32,0.3
16,B33,17.8
17,B34,4.8

# Target: T1, human C5
# Assay: Biacore, 37 degrees C; antibody captured, human C5 injected (concentration not given); association pH 7.4, dissociation pH 7.4 (circles) or pH 5.8 (triangles)
row,Binder,binding result
1,B35,binds

# Source: patent US20180016327A1 (Chugai, published 2018)
